Test [1] addresses T1, human TNF-α (Peprotech Cat No: 300-01A) (human, UniProt P01375 77-233). The test can be described thus: cell-based or functional assay.
For test [2], the target named is T1, human TNF-α (Peprotech Cat No: 300-01A). Put plainly: ELISA, TNF-α coated on the plate. The procedure: TNF-α (Peprotech Cat No: 300-01A) was diluted to 1 μg/mL in carbonate coating buffer ([…] pH 9.6). 100 μl of this solution was added to each well of a 96 well plate and incubated at 4° C. overnight in a humidified container. The plate was then washed three times with wash buffer (0.01M PBS pH 7.2, 0.05% Tween-20) and then three times with 0.01M PBS pH 7.2. The wells were then blocked by adding 200 μL blocking buffer (1% w/v BSA in 0.01M PBS pH 7.2) to each well and incubating the plate at 25° C., in a humidified container, for 1 hour. The antibody was diluted in antibody diluent (1% w/v BSA, 0.05% Tween-20 in 0.01M PBS pH 7.2) sufficient to generate a titration curve covering the ranges 6.00 μg/mL to 0.0578 ng/mL. The wells were incubated with the antibody for 1 hour at 25° C. The plate was then washed as previously described. 100 μL of Anti-IgG H+L antibody HRP conjugate (Zymed, Cat No: 81-71200) at 1:2000 in antibody diluent was used to detect bound AB197 and AB103. 100 μL of Anti-murine immunoglobulin antibody HRP conjugate (Dako, Cat No: P0260) at 1:2000 in antibody diluent was used to detect bound AB164. Wells with antibody diluent only were used to measure the background absorbance. After incubation at 25° C., in a humidified container, for 1 hour the plate was washed again as previously described. 100 μL TMB substrate solution (Zymed, Cat No: 00-2023) was added to each well and the colour allowed to develop for 4 min. 100 μL of 1M HCl was added to terminate the colour development reaction and absorbance was determined at 450 nm (ref. 620 nm)
In general terms: In an ELISA, binding on a coated surface is turned into a signal by an enzyme label.

In test [3] the target is T2, rat MOG (myelin-oligodendrocyte glycoprotein) (rat, UniProt Q63345 28-245).
T2 construct: mature; Endogenous protein in cleared rat spinal cord lysate, run on SDS-PAGE and blotted; It was identified only by its size
T2 sequence (looked up): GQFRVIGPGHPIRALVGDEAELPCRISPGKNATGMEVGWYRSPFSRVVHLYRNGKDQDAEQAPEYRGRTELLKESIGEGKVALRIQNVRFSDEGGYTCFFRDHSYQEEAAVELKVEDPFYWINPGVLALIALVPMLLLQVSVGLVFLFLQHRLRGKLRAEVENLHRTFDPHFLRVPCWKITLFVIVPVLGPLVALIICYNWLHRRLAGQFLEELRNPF
Put plainly: Western blot on rat spinal cord lysate. As to the method: The ability of AB138 to retain binding to the antigen of M26, rat MOG (myelin-oligodendrocyte glycoprotein), was investigated by Western Blot. 130 mg of rat spinal cord (IMVS, Australia) was homogenized in 1.8 ml CelLytic M Cell Lysis Reagent (SIGMA, C2978) and incubated for 30 minutes at 4° C. Further homogenization was performed by drawing the lysate through a 27 g ½ needle several times followed by centrifugation at 4° C. and 13000 g for 30 minutes. The pellet and supernatant was diluted into SDS-PAGE sample buffer (125 mM Tris-HCl pH 6.8, 5% SDS, 0.25% bromophenol blue, 25% glycerol). Along with this 200 μl CHOK1SV cells at 1×10⁶ viable cells per ml were spun down at 13000×g at 4° C. for 1 minute and resuspended in 200 μl CelLytic M Cell Lysis Reagent (SIGMA). Following centrifugation at 4° C. and 13000×g for 30 minutes the supernatant was mixed with the appropriate amount of SDS-PAGE sample buffer. All samples, along with a sample of molecular weight markers, were run on a 4-20% Novex pre-cast gel (Invitrogen, Australia) for 2 hours at 120V. Proteins were then transferred to PVDF (BioRad, Australia) using a western blot apparatus in 1×Tris-Glycine Buffer with 20% methanol (BioRad, Cat 161+-0771) at 4° C. at 250 mA for 2 hours. […] Following washing, bound antibody was detected using the ECL Western Blotting Analysis System, (Amersham Biosciences Cat: RPN2109). […]
In general terms: A western blot detects proteins with antibodies after separation by electrophoresis.

T1 sequence (P01375 77-233 limits assumed): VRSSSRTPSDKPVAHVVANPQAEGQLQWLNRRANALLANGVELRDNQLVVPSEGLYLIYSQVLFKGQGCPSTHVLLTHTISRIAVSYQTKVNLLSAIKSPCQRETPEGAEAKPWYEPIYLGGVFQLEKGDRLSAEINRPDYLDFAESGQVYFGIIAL

B1: murine monoclonal antibody AB164 (antibody, V domains shown)
VH: QVQLQQSGAELVRPGTSVKVSCKASGYAFTNYLIEWVKQRPGQGLEWIGVINPGSGSTNYNEKFKDKATLTADKSSSTAYMQLSSLTSDDSAVYFCVRDYGYDGMDYWGQGTSVTVS
VL: DIVLTQSPASLAVSLGQRATISCRASKSVSTSGYSYMHWYQQKPGQPPKLLIYLASNLESGVPARFSGSGSGTDFTLNIHPVEEEDAATYYCQHSRELPLTFGAGTKLELKR
notes: Fully murine antibody from a hybridoma
Broadly, the EC50 is the concentration at which the effect is half-maximal. A lower EC50 goes with a more potent agent. Take B1: the “EC-50 (µg/ml), neutralisation of TNF-α-induced L-929 cell cytotoxicity” value (from here on “EC-50 (µg/ml), neutralisation”) in test [1] amounted to 0.1 µg/mL. This molecule also gave an EC50 in test [2] of 0.45 mg/L.

B2: AB103 (anti-TNFα murine variable region-human constant region chimera) (antibody, V domains shown)
VH: QVQLQQSGAELVRPGTSVKVSCKASGYAFTNYLIEWVKQRPGQGLEWIGVINPGSGSTNYNEKFKDKATLTADKSSSTAYMQLSSLTSDDSAVYFCVRDYGYDGMDYWGQGTSVTVSS
VL: DIVLTQSPASLAVSLGQRATISCRASKSVSTSGYSYMHWYQQKPGQPPKLLIYLASNLESGVPARFSGSGSGTDFTLNIHPVEEEDAATYYCQHSRELPLTFGAGTKLELKR
For the molecule B2, the “EC-50 (µg/ml), neutralisation” value in test [1] is 0.1 µg/mL. Further, in test [2], the midpoint of the response, the EC50, lay at 0.19 mg/L.

B3: engineered monoclonal antibody AB197 (antibody, V domains shown)
VH: QVQLVQSGAELKKPGASVKVSCKASGYAFTNYLIEWVRQPPGQGLEWIGVINPGSGSTNYNEKFKDKATLTADKSSSTAYMELSSLRPEDTAVYYCARDYGYDGMDYWGQGTLVTVS
VL: ELVMTQSPATLSLSPGERATVSCRASKSVSTSGYSYMHWYQQKPGQAPRLLIYLASNLESGVPARFSGSRSGTDFTLTISSLEPEDFAVYYCQHSRELPLTFGQGTKLEIKR
Consider B3, for which, in test [1], the “EC-50 (µg/ml), neutralisation” value is 0.41 µg/mL. The molecule also had an EC50 in test [2] of 0.68 mg/L.

B4: AB138 (MOG specific marmoset derived variable region-human constant region chimera) (antibody, human IgG1, kappa, V domains shown)
VH: QVQLVQSGAEVKKPGASVKVSCKASGYTFTSYAISWARQPPGQGLEWMGAFDPEYGSTTYAQKFQGRVTMTADTSTSTAYMELSSLRPEDTAVYYCARDVNFGNYFDYWGQGTLVTVSS
VL: ELVMTQSPATLSLSPGERATVSCRAGQSVSYYLAWYQQKPGQAPRLLIYGASTRATGIPARFSGSRSGTDFTLTISSLEPEDFAVYYCQQYSSWPPTFGQGTKLEIKR
notes: Chimeric antibody with the variable regions of the marmoset anti-MOG antibody (M26) and human IgG1/kappa constant regions
With B4, in test [3], the binding result is “binds”.
